Results taken from publication PMC3509445 (Biology Open, 2012).

How the values were obtained:
[1] = molecular target: GST-TLX ΔN (Δ1-187) (mouse, UniProt Q64104 188-385); assay: pull-down
[2] = molecular target: GST-TLX ΔC341-385 (mouse, UniProt Q64104 1-340); assay: pull-down
Sequence of GST-TLX ΔC341-385 (Q64104 1-340, stated change not applied): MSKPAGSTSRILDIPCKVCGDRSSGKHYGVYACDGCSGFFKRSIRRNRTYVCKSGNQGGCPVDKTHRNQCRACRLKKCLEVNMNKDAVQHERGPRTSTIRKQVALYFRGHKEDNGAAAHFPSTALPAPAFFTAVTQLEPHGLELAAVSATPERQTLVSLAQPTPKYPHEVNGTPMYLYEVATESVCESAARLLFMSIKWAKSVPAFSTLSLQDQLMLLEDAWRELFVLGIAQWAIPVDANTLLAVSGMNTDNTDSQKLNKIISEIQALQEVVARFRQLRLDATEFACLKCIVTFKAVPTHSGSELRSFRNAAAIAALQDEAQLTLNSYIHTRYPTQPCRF

Sequence of GST-TLX ΔN (Δ1-187) (Q64104 188-385, stated change not applied): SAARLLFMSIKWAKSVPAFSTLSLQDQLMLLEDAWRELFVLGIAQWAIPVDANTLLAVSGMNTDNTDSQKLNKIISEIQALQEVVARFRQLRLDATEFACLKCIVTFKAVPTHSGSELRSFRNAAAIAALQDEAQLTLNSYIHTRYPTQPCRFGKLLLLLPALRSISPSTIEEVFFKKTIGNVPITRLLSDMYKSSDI

B1: ThioHis-VHL30Δ95-123 (natural protein, UniProt P40337-1 1-213, looked up)
chain: MPRRAENWDEAEVGAEEAGVEEYGPEEDGGEESGAEESGPEESGPEELGAEEEMEAGRPRPVLRSVNSREPSQVIFCNRSPRVVLPVWLNFDGETHDGLLVNQTELFVPSLNVDGQPIFANITLPVYTLKERCLQVVRSLVKPENYRRLDIVRSLYEDLEDHPNVQKDLERLTQERIAHQRMGD
binding result [1]: binds | binding result [2]: binds
